Some targets named below: HLA-A*02:03; HLA-A*02:06; HLA-A*02:02; HLA-A*33:01; HLA-A*11:01; HLA-A*31:01; HLA-A*68:01; HLA-A*03:01.
Holding throughout (assay): IEDB peptide-MHC binding, purified MHC/competitive/radioactivity; filed as Kd, often an IC50 or EC50 that approximates it; ≥ and ≤ were set here for values at or beyond the usual limits of such assays
Setting [1] is: source organism: SARS coronavirus Tor2.
The mark [2] stands for this setting: source organism: Mammarenavirus lassaense.
The mark [3] stands for this setting: source organism: Vaccinia virus WR.
[4] abbreviates: source organism: Mammarenavirus brazilense.
The mark [5] stands for this setting: source organism: Dengue virus 1 Brazil/97-11/1997.

For orientation: Kd means the constant that tells how readily two partners part at equilibrium. For the sequence MQVFFGYFA, the values for the Kd with HLA-A*02:03 (setting [1]), with HLA-A*02:06 (setting [1]) and with HLA-A*02:02 (setting [1]) were 193 nM, 1.04 nM and 9.96 nM, respectively.
NCLSLLLSV: the dissociation constant Kd in the experiment with HLA-A*02:03 (setting [2]) came out at 437 nM; in the experiment with HLA-A*02:06 (setting [2]), 630 nM; with HLA-A*02:02 (setting [2]) it was 48.7 nM.
In the case of NIREGTHVLL, the Kd with HLA-A*02:03 (setting [3]) was 5510 nM; in the experiment with HLA-A*02:06 (setting [3]) it was not below 34600 nM; in the experiment with HLA-A*02:02 (setting [3]) it was 8880 nM.
Consider PIIYSKAGNI, for which the dissociation constant (Kd) with HLA-A*02:03 (setting [3]) was determined as 139 nM; with HLA-A*02:06 (setting [3]) it was 728 nM; in the experiment with HLA-A*02:02 (setting [3]) it was 654 nM.
For the sequence QLEELEDEL, the dissociation constant Kd in the experiment with HLA-A*02:03 (source organism: Homo sapiens) is not below 68400 nM.
On to QLSNNKYVL, for which the Kd with HLA-A*02:03 (setting [3]) was determined as 4940 nM; with HLA-A*02:06 (setting [3]), 10700 nM; with HLA-A*02:02 (setting [3]), 78.5 nM.
The matching figures for RLYDYFTRVT: 551 nM, 691 nM and 2450 nM.
The matching figures for SILSLETVKM: 455 nM, 806 nM and 203 nM.
On the same counts, the results for SINITPDDGL are 1230 nM, 0.343 nM and 413 nM.
With SISSVLTIL, the dissociation constant Kd with HLA-A*02:03 (setting [3]) is 3.98 nM; in the experiment with HLA-A*02:06 (setting [3]) it was 110 nM; with HLA-A*02:02 (setting [3]), 1.25 nM.
The matching figures for SITPNNLNKI: not below 70400 nM, not below 69800 nM and 14900 nM.
SLVSAGSGKV: in the experiment with HLA-A*02:03 (source organism: Dengue virus 3 Martinique/1243/1999), the Kd turned out to be 19.4 nM.
Turning to SNPNLFWAV, the Kd came out at 6150 nM in the experiment with HLA-A*02:03 (setting [4]), 34.6 nM with HLA-A*02:06 (setting [4]) and 170 nM with HLA-A*02:02 (setting [4]).
As to STSNVITDQT, the Kd in the experiment with HLA-A*02:03 (setting [3]) is not below 70400 nM; in the experiment with HLA-A*02:06 (setting [3]) it was 10800 nM; in the experiment with HLA-A*02:02 (setting [3]), not below 53600 nM.
The matching figures for TAEQLSKYV: 8900 nM, not below 23900 nM and 5220 nM.
On to TISGNIYSA, for which the values for the dissociation constant Kd with HLA-A*02:03 (setting [3]), in the experiment with HLA-A*02:06 (setting [3]) and in the experiment with HLA-A*02:02 (setting [3]) were 18.9 nM, 179 nM and 84.5 nM, respectively.
For the sequence TLATGPLTTL, in the experiment with HLA-A*02:03 (setting [5]), the dissociation constant (Kd) worked out at 9.26 nM.
TLILAPTRVV: the equilibrium dissociation constant (Kd) in the experiment with HLA-A*02:03 (source organism: Dengue virus 2 Jamaica/1409/1983) was found to be 42.6 nM.
As to TLLCVLAAL, the Kd in the experiment with HLA-A*02:03 (setting [1]) stood at 10.6 nM; with HLA-A*02:06 (setting [1]), 7.98 nM; with HLA-A*02:02 (setting [1]) it was 8.1 nM.
For TLVPVLEKKV, the Kd in the experiment with HLA-A*02:03 (setting [3]) was 100 nM; in the experiment with HLA-A*02:06 (setting [3]), 498 nM; with HLA-A*02:02 (setting [3]), 112 nM.
The matching figures for VATFRDMLL: 9940 nM, 7720 nM and 2530 nM.
In the case of VIADYNYKL, the equilibrium dissociation constant (Kd) in the experiment with HLA-A*02:03 (setting [1]) came to 115 nM; in the experiment with HLA-A*02:06 (setting [1]), 69.1 nM; in the experiment with HLA-A*02:02 (setting [1]), 0.477 nM.
For the sequence VILPDKIDGL, the dissociation constant Kd with HLA-A*02:03 (setting [3]) worked out at 10800 nM; in the experiment with HLA-A*02:06 (setting [3]), 240 nM; with HLA-A*02:02 (setting [3]) it was 8090 nM.
On the same counts, the results for VQFSILNNPV are 369 nM, 186 nM and 131 nM.
For VVRDFENYVK, the dissociation constant (Kd) is 8.05 µM with HLA-A*33:01 (setting [3]); 30.7 nM with HLA-A*11:01 (setting [3]); 269 nM in the experiment with HLA-A*31:01 (setting [3]); 71.3 nM in the experiment with HLA-A*68:01 (setting [3]); 24.9 nM with HLA-A*03:01 (setting [3]).
Consider YFISIYSRPK, for which the Kd with HLA-A*33:01 (setting [3]) was 0.107 µM; with HLA-A*11:01 (setting [3]), 853 nM; in the experiment with HLA-A*31:01 (setting [3]) it was 112 nM; in the experiment with HLA-A*68:01 (setting [3]), 25.2 nM; with HLA-A*03:01 (setting [3]), 220 nM.
On the same counts, the results for YIIRRSGCR are 0.192 µM, 566 nM, 29.3 nM, 64.1 nM and 10500 nM.
For YIWIKNLETY, the Kd with HLA-A*33:01 (setting [3]) amounted to 4.48 µM; with HLA-A*11:01 (setting [3]), 3440 nM; with HLA-A*31:01 (setting [3]) it was 1740 nM; with HLA-A*68:01 (setting [3]), 161 nM; in the experiment with HLA-A*03:01 (setting [3]) it was 1460 nM.
As to YLALYNKYK, the dissociation constant Kd was determined as 7.98 µM in the experiment with HLA-A*33:01 (setting [1]); 1320 nM with HLA-A*11:01 (setting [1]); 941 nM in the experiment with HLA-A*31:01 (setting [1]); 913 nM in the experiment with HLA-A*68:01 (setting [1]); 201 nM in the experiment with HLA-A*03:01 (setting [1]).
Consider YQVKTETTI, for which the Kd in the experiment with HLA-A*02:06 (source organism: Dengue virus 4 Philippines/H241/1956) is 26.3 nM.
In the case of YSYATHHDK, the dissociation constant (Kd) with HLA-A*33:01 (setting [1]) was not below 26.2 µM; with HLA-A*11:01 (setting [1]) it was 30.5 nM; in the experiment with HLA-A*31:01 (setting [1]) it was 3470 nM; with HLA-A*68:01 (setting [1]) it was 16.3 nM; in the experiment with HLA-A*03:01 (setting [1]) it was 16.4 nM.
For the sequence YTLFQQTGR, the dissociation constant (Kd) in the experiment with HLA-A*33:01 (setting [3]) stood at 0.0241 µM; with HLA-A*11:01 (setting [3]), 551 nM; with HLA-A*31:01 (setting [3]) it was 50 nM; with HLA-A*68:01 (setting [3]), 0.384 nM; with HLA-A*03:01 (setting [3]), 3100 nM.
For YVMCTGSFKL, the Kd in the experiment with HLA-A*02:06 (setting [5]) was 18.8 nM.
On the same count and under the same terms, the value for YVVTTDISEM was 1160 nM.

For the origin of these results see the Immune Epitope Database (IEDB).
